Assay results published in paper PMC1226315 (Nucleic Acids Research, 2005).

Target: human wild-type Cdk2 GST fusion protein (human, UniProt P24941 1-298)
Experiment: pull-down

binding result: binds
B1: Recombinant human wild-type DNA polymerase λ, His-tagged (enzyme)
chain: MDPRGILKAFPKRQKIHADASSKVLAKIPRREEGEEAEEWLSSLRAHVVRTGIGRARAELFEKQIVQHGGQLCPAQGPGVTHIVVDEGMDYERALRLLRLPQLPPGAQLVKSAWLSLCLQERRLVDVAGFSIFIPSRYLDHPQPSKAEQDASIPPGTHEALLQTALSPPPPPTRPVSPPQKAKEAPNTQAQPISDDEASDGEETQVSAADLEALISGHYPTSLEGDCEPSPAPAVLDKWVCAQPSSQKATNHNLHITEKLEVLAKAYSVQGDKWRALGYAKAINALKSFHKPVTSYQEACSIPGIGKRMAEKIIEILESGHLRKLDHISESVPVLELFSNIWGAGTKTAQMWYQQGFRSLEDIRSQASLTTQQAIGLKHYSDFLERMPREEATEIEQTVQKAAQAFNSGLLCVACGSYRRGKATCGDVDVLITHPDGRSHRGIFSRLLDSLRQEGFLTDDLVSQEENGQQQKYLGVCRLPGPGRRHRRLDIIVVPYSEFACALLYFTGSAHFNRSMRALAKTKGMSLSEHALSTAVVRNTHGCKVGPGRVLPTPTEKDVFRLLGLPYREPAERDW
